The values that follow come from patent publication US20240279325A1 (Chugai, published 2024).

Assay [1] concerns the target T1, human FcγRIIb extracellular domain with C-terminal His tag (human, UniProt P31994 43-217).
T1 sequence: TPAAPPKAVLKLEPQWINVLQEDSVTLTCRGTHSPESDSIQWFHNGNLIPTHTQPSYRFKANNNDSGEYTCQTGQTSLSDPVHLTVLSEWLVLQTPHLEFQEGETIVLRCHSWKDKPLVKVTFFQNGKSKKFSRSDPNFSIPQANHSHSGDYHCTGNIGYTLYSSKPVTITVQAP
The experiment in a line: ratio of SPR KDs (FcγRIIaR over FcγRIIb).

For assay [2], the target named is T2, human FcγRIIa type R (allotype R131) extracellular domain with C-terminal His tag (human, UniProt P12318 34-217).
T2 construct: also called FcγRIIaR
T2 chain: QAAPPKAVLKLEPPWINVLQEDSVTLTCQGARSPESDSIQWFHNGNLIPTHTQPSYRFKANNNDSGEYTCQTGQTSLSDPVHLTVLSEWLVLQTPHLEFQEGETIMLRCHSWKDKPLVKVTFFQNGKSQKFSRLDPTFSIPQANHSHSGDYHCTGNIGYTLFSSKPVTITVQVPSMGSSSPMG
The experiment in a line: ratio of SPR KDs, reference IL6R-B3/IL6R-L.

For assay [3], the target named is T1, human FcγRIIb extracellular domain with …. The experiment in a line: ratio of SPR KDs, reference IL6R-B3/IL6R-L.
The target of assay [4] is human FcγRIa extracellular domain with C-terminal His tag (human, UniProt P12314 16-292). Put plainly: SPR (Biacore), captured antibody, FcγR analyte. (SPR reads the build-up and loss of mass on a sensor chip optically.)
Assay [5] addresses T2, human FcγRIIa type R (allotype R131) …. Put plainly: SPR (Biacore), captured antibody, FcγR analyte.
In assay [6] the target is T3, human FcγRIIa type H (allotype H131) extracellular domain with C-terminal His tag (human, UniProt P12318 34-217).
T3 construct: also called FcγRIIaH
T3 sequence: T2 chain with R133H
Put plainly: SPR (Biacore), captured antibody, FcγR analyte.

Assay [7] addresses T1, human FcγRIIb extracellular domain with …. The experiment in a line: SPR (Biacore), captured antibody, FcγR analyte.
Assay [8] has as its target T4, human FcγRIIIa type V (allotype V158) extracellular domain with C-terminal His tag (human, UniProt P08637 17-208).
T4 construct: also called FcγRIIIaV; FcγRIIIa V type
The experiment in a line: SPR (Biacore), captured antibody, FcγR analyte.

Assay [9] concerns the target T5, FcγRIIb extracellular region (human, UniProt P31994 43-217).
T5 construct: extracellular domain; for crystals expressed with kifunensine and trimmed with Endo F1; also called human FcγRIIb
T5 sequence (looked up): T1 sequence
Put plainly: SPR (Biacore), ratio of KD values.

Assay [10] concerns the target T6, FcγRIIaR extracellular region (human, UniProt P12318 34-217).
T6 construct: extracellular domain; also called FcγRIIa type R; FcγRIIa allotype R131
T6 sequence (looked up): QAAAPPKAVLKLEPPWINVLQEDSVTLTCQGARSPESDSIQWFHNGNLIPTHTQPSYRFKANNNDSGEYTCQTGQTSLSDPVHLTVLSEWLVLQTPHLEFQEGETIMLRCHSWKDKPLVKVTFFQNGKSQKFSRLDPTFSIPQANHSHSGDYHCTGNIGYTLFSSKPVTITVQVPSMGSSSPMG
The experiment in a line: SPR (Biacore), ratio of KD values.

Assay [11] deals with T7, FcγRIa extracellular domain, C-terminal His tag (human, UniProt P12314 16-292).
T7 construct: extracellular domain; not shown: His tag at the C terminus
Put plainly: SPR (Biacore), antibody captured on chip, FcγR extracellular domain as analyte, 25 C.

For assay [12], the target named is T2, human FcγRIIa type R (allotype R131) …. Put plainly: SPR (Biacore), captured antibody, FcγR analyte.
Assay [13] concerns the target T8, human FcγRIIa type H (allotype H131) extracellular domain with C-terminal His tag (human, UniProt P12318 34-217).
T8 construct: extracellular domain; also called FcγRIIaH; not shown: His tag at the C terminus
T8 sequence (looked up): T6 sequence (looked up) with R134H
The experiment in a line: SPR (Biacore), antibody captured, FcγR analyte.

In assay [14] the target is T9, human FcγRIIb extracellular domain with C-terminal His tag (human, UniProt P31994 43-217).
T9 construct: extracellular domain; not shown: His tag at the C terminus
T9 sequence (looked up): T1 sequence
The experiment in a line: SPR (Biacore), antibody captured, FcγR analyte.

In assay [15] the target is T10, FcγRIa extracellular domain with C-terminal His tag (human, UniProt P12314 16-292).
T10 construct: extracellular domain
The experiment in a line: SPR (Biacore), antibody captured, FcγR as analyte.

Assay [16] deals with T11, FcγRIIa type R (allotype R131) extracellular domain with C-terminal His tag (human, UniProt P12318 34-217).
T11 construct: extracellular domain; also called FcγRIIaR; FcγRIIa R type
T11 sequence (looked up): T6 sequence (looked up)
Put plainly: SPR (Biacore), antibody captured, FcγR as analyte.

Assay [17] deals with T12, FcγRIIb extracellular domain with C-terminal His tag (human, UniProt P31994 43-217).
T12 construct: extracellular domain
T12 sequence (looked up): T1 sequence
Put plainly: SPR (Biacore), antibody captured, FcγR as analyte.

Assay [18] deals with T13, FcγRIIIa type V (allotype V158) extracellular domain with C-terminal His tag (human, UniProt P08637 17-208).
T13 construct: extracellular domain; also called FcγRIIIaV; FcγRIIIa V type
Put plainly: SPR (Biacore), antibody captured, FcγR as analyte.

In assay [19] the target is T14, human FcRn (human, UniProt P55899 24-290; P61769 21-119, limits assumed).
T14 construct: also called human neonatal Fc receptor
Put plainly: SPR Biacore, pH 7.0. The method, then: The binding between the antibody and human FcRn under a neutral condition (pH 7.0) was analyzed with a BIACORE™ system.

In assay [20] the target is T4, human FcγRIIIa type V (allotype V158) …. Put plainly: SPR (Biacore), captured antibody, FcγR analyte. The source holds these as a separate data set.
In assay [21] the target is T3, human FcγRIIa type H (allotype H131) …. Put plainly: SPR (Biacore), captured antibody, FcγR analyte. The source holds these as a separate data set.

Residue numbers refer to the chain shown, from its start. Like-named read-outs stand apart in the source and are kept apart here.

T4 sequence (P08637 other isoform, or with tags, fused parts or gaps): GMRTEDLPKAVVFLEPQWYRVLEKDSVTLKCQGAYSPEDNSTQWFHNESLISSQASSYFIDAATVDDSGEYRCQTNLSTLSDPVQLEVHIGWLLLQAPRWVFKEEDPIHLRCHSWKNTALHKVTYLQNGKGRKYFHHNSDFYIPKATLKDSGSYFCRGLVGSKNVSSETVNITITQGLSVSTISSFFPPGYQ
T14 sequence (P55899 24-290 limits assumed, chain 1 of 2): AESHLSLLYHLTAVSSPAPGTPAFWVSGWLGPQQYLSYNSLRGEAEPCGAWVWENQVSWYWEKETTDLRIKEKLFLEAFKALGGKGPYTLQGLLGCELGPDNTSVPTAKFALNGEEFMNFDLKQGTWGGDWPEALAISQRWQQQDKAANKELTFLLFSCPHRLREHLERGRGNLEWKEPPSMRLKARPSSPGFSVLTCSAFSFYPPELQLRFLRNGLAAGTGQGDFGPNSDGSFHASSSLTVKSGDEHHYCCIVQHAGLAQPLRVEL
T14 sequence (P61769 21-119 limits assumed, chain 2 of 2): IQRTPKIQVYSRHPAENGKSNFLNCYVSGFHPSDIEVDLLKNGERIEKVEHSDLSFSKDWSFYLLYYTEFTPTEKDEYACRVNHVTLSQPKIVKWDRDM
T13 sequence (P08637 17-208 F176V): as the sequence (P08637 other isoform, or with tags, fused parts or gaps) above, with S179A counted along it
T7 sequence (P12314 16-292): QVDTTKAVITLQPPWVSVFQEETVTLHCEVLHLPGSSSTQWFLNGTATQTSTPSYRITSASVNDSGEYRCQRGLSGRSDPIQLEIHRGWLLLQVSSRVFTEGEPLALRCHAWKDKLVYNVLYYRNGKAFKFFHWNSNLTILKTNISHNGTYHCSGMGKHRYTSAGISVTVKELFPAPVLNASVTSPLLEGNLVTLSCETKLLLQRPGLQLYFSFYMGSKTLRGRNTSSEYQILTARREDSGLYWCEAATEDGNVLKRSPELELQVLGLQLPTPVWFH
human FcγRIa extracellular domain with C-terminal His tag, sequence (P12314 16-292): as above
T10 sequence (P12314 16-292): as above

B1: IL6R-BP478/IL6R-L (antibody)
heavy: QVQLQESGPGLVKPSETLSLTCAVSGHSISHDHAWSWVRQPPGEGLEWIGFISYSGITNYNPSLQGRVTISRDNSKNTLYLQMNSLRAEDTAVYYCARSLARTTAMDYWGEGTLVTVSSASTKGPSVFPLAPCSRSTSESTAALGCLVKDYFPEPVTVSWNSGALTSGVHTFPAVLQSSGLYSLSSVVTVPSSSLGTKTYTCNVDHKPSNTKVDKRVESKYGPPCPPCPAPDLLGDDSVFLFPPKPKDTLMISRTPEVTCVVVDVSDEDGEVKFNWYVDGVEVHNAKTKPREEQDNSTYRVVSVLTVLHQDWLNGKEYKCKVSNKALPRPIEKTISKAKGQPREPQVYTLPPSRDELTKNQVSLTCLVKGFYPSDIAVEWESNGQPENNYKTTPPVLDSDGSFFLYSKLTVDKSRWQQGNVFSCSVMHEALHNHYTQESLSLSP
light: not shown
notes: copies: 2 + 2
Take B1: in [1], the “KD(IIaR)/KD(IIb)” value was determined as 28. Moreover, the “KD(IIaR) of parent polypeptide/KD(IIaR) of altered polypeptide” value in assay [2] stood at 2. Also, the “KD(IIb) of parent polypeptide/KD(IIb) of altered polypeptide” value in assay [3] is 161. The dissociation constant (Kd) in assay [4] was 7.7 nM; in [5] it was 540 nM; in assay [6], 6700 nM; in [7], 19 nM; in assay [8], 35000 nM.

B2: IL6R-BP478/IL6R-L (antibody)
heavy: B1 heavy
light: not shown
notes: copies: 2 + 2
Turning to B2, the “fold binding relative to IL6R-BP230/IL6R-L” value stood at 1.1 times in [9] and 0.9 times in [10].

B3: IL6R-BP182/IL6R-L (antibody, human IgG1, kappa, name in EU numbering)
heavy: QVQLQESGPGLVKPSETLSLTCAVSGHSISHDHAWSWVRQPPGEGLEWIGFISYSGITNYNPSLQGRVTISRDNSKNTLYLQMNSLRAEDTAVYYCARSLARTTAMDYWGEGTLVTVSSASTKGPSVFPLAPSSKSTSGGTAALGCLVKDYFPEPVTVSWNSGALTSGVHTFPAVLQSSGLYSLSSVVTVPSSSLGTQTYICNVNHKPSNTKVDKKVEPKSCDKTHTCPPCPAPDLLGGDSVFLFPPKPKDTLMISRTPEVTCVVVDVSHEDGEVKFNWYVDGVEVHNAKTKPREEQDNSTYRVVSVLTVLHQDWLNGKEYKCKVSNKALPKPIEKTISKAKGQPREPQVYTLPPSRDELTKNQVSLTCLVKGFYPSDIAVEWESNGQPENNYKTTPPVLDSDGSFFLYSKLTVDKSRWQQGNVFSCSVMHEALHNHYTQESLSLSP
light: not shown
notes: copies: 2 + 2
In [11], B3 came in with a Kd of 20 nM.

B4: IL6R-BP514/IL6R-L (antibody, human IgG1, kappa, name in EU numbering)
heavy: B3 heavy with G239D, H270E, E274F, D298Y, K332A
light: not shown
notes: copies: 2 + 2
Molecule B4 yielded a Kd in [12] of 3000 nM.

B5: IL6R-BP202/IL6R-L (antibody, human IgG1, kappa, name in EU numbering)
heavy: B3 heavy with D235E, G239D, D298Y, K328A, K332R
light: not shown
notes: EU numbering; copies: 2 + 2
Turning to B5, the figures for the dissociation constant (Kd) in assay [13] and in assay [14] were 92000 nM and 54 nM, respectively.

B6: IL6R-BP253/IL6R-L (antibody, human IgG1, kappa, name in EU numbering)
heavy: B3 heavy with D235E, D240P, S269E, G273P, D298Y, L330F, K332A
light: not shown
notes: comparison control with existing alterations; copies: 2 + 2
For B6, the Kd in [15] was found to be 0.0067 nM; in assay [16] it was 2.1 nM; in assay [17], 11 nM; in [18] it was 3600 nM.

B7: F414 (antibody, human IgG1, kappa)
heavy: B3 heavy with D235E, D240P, P259V, G273P, D298Y, T309S, K332A, M430L, N436Y, E441K
light: not shown
notes: copies: 2 + 2
Turning to B7, binding in [19] was characterised by a dissociation constant (Kd) of 110 nM.

B8: IL6R-BP462/IL6R-L (antibody, human IgG1, kappa, name in EU numbering)
heavy: B3 heavy with G239D, S269A, H270E, D298Y, K332R, P398V
light: not shown
notes: copies: 2 + 2
Molecule B8 gave a Kd in assay [20] of 9000 nM.

B9: IL6R-BP470/IL6R-L (antibody, human IgG1, kappa, name in EU numbering)
heavy: B3 heavy with G239D, H270D, K332R, E335T
light: not shown
notes: copies: 2 + 2
In turn, B9 had an equilibrium dissociation constant (Kd) in [21] of 10000 nM.

For orientation: Kd means the concentration at which binding is half-saturated. A low value points to tighter binding.
